Results on 1 molecule are retold here after patent US20120328623A1 (Kyowa Kirin, published 2012).

This test concerns the target T1, GST fusion protein wherein the extracellular domain of mouse erbB3 is fused to GST (mouse, UniProt Q61526 20-641).
T1 construct: also called merbB3-GST; merbB3; not shown: glutathione S-transferase (GST)
Put plainly: binding ELISA, GST fusion captured by anti-GST. The protocol: anti-Glutathione-Transferase-Schistsoma-japonicum (Goat) (manufactured by Rockland Immunochemicals Inc., ca. No. 16979) (hereinbelow, described as “anti-GST”) prepared at 1 μg/mL by using a 50 mM carbonate buffer (pH 9) (hereinbelow, described as a “coating buffer”) was added to Maxisorp plate (NUNC; ca. No. 442404) at 50 μL/well and immobilized by incubation at 37° C. for an hour (or 4° C., ON).
After the buffer was discarded, a blocking reagent (SuperBlock® Blocking Buffer, manufactured by PIERCE) was added to the respective wells at 250 μL to 300 μL/well, followed by incubation at room temperature for 5 to 10 minutes for blocking After the blocking reagent was discarded, the herbB3-GST fusion protein, the merbB3-GST fusion protein, the hD1/mD234 fusion protein, the hD12/mD34 fusion protein, and the hD123/mD4 fusion protein which were diluted at 5 μg/mL with Tris-buffered saline (hereinbelow, described as an “assay diluent”) containing 10% Block Ace® (manufactured by Dainippon Sumitomo Pharma Co., Ltd.) and 0.1% Tween 20 were added respectively to the plates of the respective antigens at 50 μL/well, and immobilized by incubation at room temperature for an hour.
An absorbance at a wavelength of 450 nm (reference wavelength of 570 nm) was measured using a microplate reader (MTP-300; manufactured by CORONA […] Co., Ltd.).

T1 sequence (Q61526 20-641): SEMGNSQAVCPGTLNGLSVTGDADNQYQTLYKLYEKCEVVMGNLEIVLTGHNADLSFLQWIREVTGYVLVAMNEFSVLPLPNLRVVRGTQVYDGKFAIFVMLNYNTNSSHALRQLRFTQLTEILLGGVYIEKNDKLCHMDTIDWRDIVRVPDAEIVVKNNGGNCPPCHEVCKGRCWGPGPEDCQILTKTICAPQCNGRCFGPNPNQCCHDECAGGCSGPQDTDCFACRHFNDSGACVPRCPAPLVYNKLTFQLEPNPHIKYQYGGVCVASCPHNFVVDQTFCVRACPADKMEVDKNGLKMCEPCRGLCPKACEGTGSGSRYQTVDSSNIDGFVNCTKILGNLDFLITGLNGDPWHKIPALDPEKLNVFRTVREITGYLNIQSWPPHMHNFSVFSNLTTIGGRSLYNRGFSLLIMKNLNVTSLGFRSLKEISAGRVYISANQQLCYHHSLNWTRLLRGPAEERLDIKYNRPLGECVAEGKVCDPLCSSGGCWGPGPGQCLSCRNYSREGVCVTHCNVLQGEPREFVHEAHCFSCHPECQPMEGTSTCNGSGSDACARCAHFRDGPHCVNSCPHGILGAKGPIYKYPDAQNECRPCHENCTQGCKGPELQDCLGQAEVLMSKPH

B1: anti-human erbB3 monoclonal antibody 12511 (antibody, V domains shown)
VH: QIQLQQSGPELVNPGASVKISCKPSGYTFTDYYINWVKQRPGQGLEWIGWIHPGGGYTKYNEKFRGKATVTVDTSANTVYMQLSSLTSDDSAVYFCARRDYGDYGFAYWGQGTLVTVSA
VL: DIVLTQSPASLAVSLGQRATISCRVSESVDSYGNSFMHWYQQKPGQPPKLLIYRASNLESGIPDRFSGSVSRTDFTLTINPVEPDDVATYYCQQTNEDPPTFGGGTKLEIK
Take B1: the binding result is “binds”.
